Reference: patent publication US20260055173A1 (published 2026)

T1: mouse VEGF-A (mouse, UniProt Q00731-2 27-190, limits assumed)
T1 sequence (looked up): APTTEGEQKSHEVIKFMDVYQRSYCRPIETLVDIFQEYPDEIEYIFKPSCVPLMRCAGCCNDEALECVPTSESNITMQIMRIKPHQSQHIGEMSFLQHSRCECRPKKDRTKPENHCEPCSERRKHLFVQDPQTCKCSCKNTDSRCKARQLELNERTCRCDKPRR

B1: #16 bispecific antibody (bispecific antibody, human IgG1, kappa)
heavy: QVQLVQSGVEVKKPGASVKVSCKASGYTFTNYYMYWVRQAPGQGLEWMGGINPSNGGTNFNEKFKNRVTLTTDSSTTTAYMELKSLQFDDTAVYYCARRDYRFDMGFDYWGQGTTVTVSSASTKGPSVFPLAPSSKSTSGGTAALGCLVKDYFPEPVTVSWNSGALTSGVHTFPAVLQSSGLYSLSSVVTVPSSSLGTQTYICNVNHKPSNTKVDKKVEPKSCDKTHTCPPCPAPEAEGAPSVFLFPPKPKDTLMISRTPEVTCVVVDVSHEDPEVKFNWYVDGVEVHNAKTKPREEQYNSTYRVVSVLTVLHQDWLNGKEYKCKVSNKALPSSIEKTISKAKGQPREPQVYTLPPSREEMTKNQVSLTCLVKGFYPSDIAVEWESNGQPENNYKTTPPVLDSDGSFFLYSKLTVDKSRWQQGNVFSCSVMHEALHNHYTQKSLSLSPGEVQLLESGGGLVQPGGSLRLSCAASGFTFSTSTMSWYRQAPGKERELVSFITSAGATTYYADSVKGRFTMSRDNSKNTVYLQMNSLRAEDTAVYYCRALVTLWNVYWGQGTLVTVSS
light: EIVLTQSPATLSLSPGERATLSCRASKGVSTSGYSYLHWYQQKPGQAPRLLIYLASYLESGVPARFSGSGSGTDFTLTISSLEPEDFAVYYCQHSRDLPLTFGGGTKVEIKRTVAAPSVFIFPPSDEQLKSGTASVVCLLNNFYPREAKVQWKVDNALQSGNSQESVTEQDSKDSTYSLSSTLTLSKADYEKHKVYACEVTHQGLSSPVTKSFNRGEC
notes: Pembrolizumab-based anti-PD-1 IgG with #48 VHH at the C-terminus of the heavy chain; 2+2 valency; functionally silent IgG1 Fc (AEASS)
B2: Strain #6 VHH (Fc fusion)
chain: QVQLQESGGGLVQPGGSLRLSCAASGFTFSTSTMSWYRQAPGKERELVAFITSAGATTNYADSVKDRFTMSRDNDKNTVYLQMNVLKPEDTAMYYCRALVTLWNVYWGQGTQVTVSS
notes: also called strain 6 (#6); not shown: Fc of the VHH-Fc construct
B3: Bevacizumab (antibody, V domains shown)
VH: EVQLVESGGGLVQPGGSLRLSCAASGYTFTNYGMNWVRQAPGKGLEWVGWINTYTGEPTYAADFKRRFTFSLDTSKSTAYLQMNSLRAEDTAVYYCAKYPHYYGSSHWYFDVWGQGTLVTVSS
VL: DIQMTQSPSSLSASVGDRVTITCSASQDISNYLNWYQQKPGKAPKVLIYFTSSLHSGVPSRFSGSGSGTDFTLTISSLQPEDFATYYCQQYSTVPWTFGQGTKVEIK
B4: Strain #48 VHH (VHH, not shown: a dimerising Fc or GST)
VHH: EVQLLESGGGLVQPGGSLRLSCAASGFTFSTSTMSWYRQAPGKERELVSFITSAGATTYYADSVKGRFTMSRDNSKNTVYLQMNSLRAEDTAVYYCRALVTLWNVYWGQGTLVTVSS
notes: Humanized, stabilized variant of #6 (11 Kabat-numbered mutations)

Legend:
[1] = target: T2, human PD-1 (ACRO, His tag) (human, UniProt Q15116 25-167); experiment: ELISA, human PD-1 (His tag) coated, anti-human IgG Fc-HRP
T2 construct: not shown: His tag
T2 sequence (Q15116 25-167 limits assumed): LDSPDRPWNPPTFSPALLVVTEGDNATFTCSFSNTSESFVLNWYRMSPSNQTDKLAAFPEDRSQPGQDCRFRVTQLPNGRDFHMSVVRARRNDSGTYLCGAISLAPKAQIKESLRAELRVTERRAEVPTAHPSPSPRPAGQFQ
Description: (§1) The binding of the antibody to human PD-1 was detected by ELISA. 1 μg/mL human PD-1 (ACRO, His tag) was coated on an ELISA plate overnight and blocked. Subsequently, the plate was added with gradient dilutions of the bispecific antibody and the control antibody, incubated and washed. Then, the plate was added with HRP-labeled anti-human IgG Fc secondary antibody, incubated and washed. After TMB solution was added for color development, the OD450 absorbance value was read on a microplate reader (see Table 12). […] Subsequently, the plate was added with gradient dilutions of the sample to be tested and the control antibody, incubated and washed. Then, the plated was added with HRP-labeled anti-human IgG Fc secondary antibody, incubated and washed. After TMB solution was added for color development, the OD450 absorbance value was read on a microplate reader (see Table 13). […] (The control substances were all obtained by in-house expression and purification)

VEGF = experiment: cell-based or functional assay
[2] = target: T3, human PD-1 (ACRO, Fc tag) (human, UniProt Q15116 25-167); experiment: competition ELISA: human PD-1 (Fc tag) coated, antibody mixed with human PD-L1 (His tag), anti-His-HRP
T3 construct: not shown: Fc tag
T3 sequence (Q15116 25-167 limits assumed): as above
Description: (§2) An ELISA plate was coated with 1 ug/mL of human PD-1 (ACRO, Fc tag) overnight, washed and blocked. […] Then the plate was added with HRP-labeled anti-His antibody, and incubated for 1 hour. After TMB solution was added for color development, the OD450 absorbance value was read on a microplate reader (see Table 16).

[3] = target: T4, biotin-labeled human VEGF (ACRO, biotinylated protein) (human, UniProt P15692-4 27-191, limits assumed, biotinylated (site not stated)); experiment: competition ELISA: human VEGFR1 (Fc tag) coated, antibody mixed with biotinylated human VEGF, streptavidin-HRP
Description: (§3) ELISA plates were respectively coated with 2 μg/mL human VEGFR1 and 5 μg/mL human VEGFR2 (in-house constructed and expressed, Fc tag) overnight, washed and blocked. […] Then the plates were added with HRP-labeled streptavidin and incubated for 1 hour. After TMB solution was added for color development, the OD450 nm absorbance value was read on a microplate reader.

[4] = target: T4, biotin-labeled human VEGF (ACRO, …); experiment: competition ELISA: human VEGFR2 (Fc tag) coated, antibody mixed with biotinylated human VEGF, streptavidin-HRP
Description: as §3

[5] = target: T2, human PD-1 (ACRO, His tag); experiment: dual (bridging) ELISA: human PD-1 (His tag) coated, antibody, then biotinylated human VEGF, streptavidin-HRP
Description: (§4) The order of the binding to VEGF and PD-1 was changed for dual ELISA detection. A 96-well ELISA plate was coated with 1 μg/mL human PD-1 (ACRO, His tag) overnight, washed and blocked for 1 hour. […] TMB solution was added for color development, and the OD450 nm absorbance value was read on a microplate reader.

[6] = target: monkey PD-1 (ACRO, His tag) (monkey, UniProt B0LAJ3 25-170); experiment: ELISA, monkey PD-1 (His tag) coated, anti-human IgG Fc-HRP
Chain of monkey PD-1 (ACRO, His tag) (B0LAJ3 entry or part of it limits assumed, form in doubt): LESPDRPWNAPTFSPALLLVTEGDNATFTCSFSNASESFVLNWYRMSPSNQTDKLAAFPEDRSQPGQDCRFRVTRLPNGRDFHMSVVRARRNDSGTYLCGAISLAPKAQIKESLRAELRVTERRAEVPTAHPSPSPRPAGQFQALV
Description: The binding of candidate molecules and competitor to antigens of different species was detected by ELISA. […] The binding of antibodies to monkey PD-1 was detected by ELISA. An ELISA plate was coated with 1 μg/mL monkey PD-1 (ACRO, His tag) overnight and blocked. Subsequently, the plate was added with gradient dilutions of the sample to be tested and the control antibody, incubated and washed. Then, the plate was added with HRP-labeled anti-human IgG Fc secondary antibody, incubated and washed. After TMB solution was added for color development, the OD450 absorbance value was read on a microplate reader (see Table 15).

[7] = target: human VEGF (Sino Biological, no label) (human, UniProt P15692-4 27-191, limits assumed); experiment: dual (bridging) ELISA: human VEGF (no label) coated, antibody, then human PD-1 (His tag), anti-His-HRP
Description: Biological, no label) overnight, washed and blocked for 1 hour. Subsequently, the plate was added with gradient dilutions of the test antibody, incubated for 2 hours, then added with 1 μg/mL of human PD-1 (ACRO, His tag), incubated for 2 hours, washed, and incubated with HRP-labeled anti-His antibody for 1 hour. After TMB solution was added for color development, the OD450 nm absorbance value was read on a microplate reader.

[8] = target: T5, human VEGF (ACRO, His tag) (human, UniProt P15692-4 27-191, limits assumed); experiment: ELISA, human VEGF (His tag) coated, anti-human IgG Fc-HRP
T5 construct: not shown: His tag
Description: as §1

mouse VEGF-A = target: T1, mouse VEGF-A; experiment: ELISA, VHH-Fc expression supernatant on mouse VEGF-A
human VEGF-A = human VEGF-A (human, UniProt P15692-4 27-191, limits assumed); experiment: ELISA, VHH-Fc expression supernatant on human VEGF-A
[9] = target: T3, human PD-1 (ACRO, Fc tag); experiment: competition ELISA: human PD-1 (Fc tag) coated, antibody mixed with human PD-L1 (His tag); text: 'except for #48, which only bound to VEGF'
Description: as §2

[10] = target: T2, human PD-1 (ACRO, His tag); experiment: dual (bridging) ELISA: human PD-1 (His tag) coated, antibody, then biotinylated human VEGF; 'A single targeting antibody failed to bind to two targets simultaneously'
Description: as §4

Binder	EC50 [1]	TOP OD [1]	maximum inhibition rate (HUVEC proliferation) (VEGF)	IC50 [2]	IC50 [3]	IC50 [4]	EC50 [5]	TOP OD [5]	EC50 [6]	TOP OD [6]	EC50 [7]	EC50 [8]	TOP OD [8]	EC50 (mouse VEGF-A)	EC50 (human VEGF-A)	binding result [9]	binding result [10]
B1	0.114 nM	2.58 OD450	~60%	2.53 nM	0.507 nM	3.25 nM	0.117 nM	3.65 OD450	0.171 nM	3.38 OD450	0.326 nM	0.579 nM	1.75 OD450	–	–	–	–
B2	–	–	–	–	–	–	–	–	–	–	–	–	–	6.46 ng/mL	9.33 ng/mL	–	–
B3	–	0.151 OD450	–	–	–	–	–	0.067 OD450	–	0.127 OD450	–	–	–	–	–	–	–
B4	–	–	–	–	–	5.84 nM	–	0.061 OD450	–	–	–	0.608 nM	3.09 OD450	–	–	no binding	no binding
